Measurements published in article PMC8298264, “Function of cofactor Akirin2 in the regulation of gene expression in model human neutrophil-like HL60 cells” (Bioscience Reports, 2021).

B1: sp¦P50502¦F10A1_HUMAN (protein, UniProt P50502 1-369, looked up)
Hsc70-interacting protein: MDPRKVNELRAFVKMCKQDPSVLHTEEMRFLREWVESMGGKVPPATQKAKSEENTKEEKPDSKKVEEDLKADEPSSEESDLEIDKEGVIEPDTDAPQEMGDENAEITEEMMDQANDKKVAAIEALNDGELQKAIDLFTDAIKLNPRLAILYAKRASVFVKLQKPNAAIRDCDRAIEINPDSAQPYKWRGKAHRLLGHWEEAAHDLALACKLDYDEDASAMLKEVQPRAQKIAEHRRKYERKREEREIKERIERVKKAREEHERAQREEEARRQSGAQYGSFPGGFPGGMPGNFPGGMPGMGGGMPGMAGMPGLNEILSDPEVLAAMQDPEVMVAFQDVAQNPANMSKYQSNPKVMNLISKLSAKFGGQA
B2: Serine protease 57 (protein, UniProt Q6UWY2 32-283, looked up)
Serine protease 57: AQIIGGHEVTPHSRPYMASVRFGGQHHCGGFLLRARWVVSAAHCFSHRDLRTGLVVLGAHVLSTAEPTQQVFGIDALTTHPDYHPMTHANDICLLRLNGSAVLGPAVGLLRPPGRRARPPTAGTRCRVAGWGFVSDFEELPPGLMEAKVRVLDPDVCNSSWKGHLTLTMLCTRSGDSHRRGFCSADSGGPLVCRNRAHGLVSFSGLWCGDPKTPDVYTQVSAFVAWIWDVVRRSSPQPGPLPGTTRPPGEAA
B3: sp¦O14745¦NHRF1_HUMAN (protein, UniProt O14745 2-358, looked up)
Na(+)/H(+) exchange …: SADAAAGAPLPRLCCLEKGPNGYGFHLHGEKGKLGQYIRLVEPGSPAEKAGLLAGDRLVEVNGENVEKETHQQVVSRIRAALNAVRLLVVDPETDEQLQKLGVQVREELLRAQEAPGQAEPPAAAEVQGAGNENEPREADKSHPEQRELRPRLCTMKKGPSGYGFNLHSDKSKPGQFIRSVDPDSPAEASGLRAQDRIVEVNGVCMEGKQHGDVVSAIRAGGDETKLLVVDRETDEFFKKCRVIPSQEHLNGPLPVPFTNGEIQKENSREALAEAALESPRPALVRSASSDTSEELNSQDSPPKQDSTAPSSTSSSDPILDFNISLAMAKERAHQKRSSKRAPQMDWSKKNELFSNL
B4: sp¦P12814¦ACTN1_HUMAN (protein, UniProt P12814 1-892, looked up)
Alpha-actinin-1: MDHYDSQQTNDYMQPEEDWDRDLLLDPAWEKQQRKTFTAWCNSHLRKAGTQIENIEEDFRDGLKLMLLLEVISGERLAKPERGKMRVHKISNVNKALDFIASKGVKLVSIGAEEIVDGNVKMTLGMIWTIILRFAIQDISVEETSAKEGLLLWCQRKTAPYKNVNIQNFHISWKDGLGFCALIHRHRPELIDYGKLRKDDPLTNLNTAFDVAEKYLDIPKMLDAEDIVGTARPDEKAIMTYVSSFYHAFSGAQKAETAANRICKVLAVNQENEQLMEDYEKLASDLLEWIRRTIPWLENRVPENTMHAMQQKLEDFRDYRRLHKPPKVQEKCQLEINFNTLQTKLRLSNRPAFMPSEGRMVSDINNAWGCLEQVEKGYEEWLLNEIRRLERLDHLAEKFRQKASIHEAWTDGKEAMLRQKDYETATLSEIKALLKKHEAFESDLAAHQDRVEQIAAIAQELNELDYYDSPSVNARCQKICDQWDNLGALTQKRREALERTEKLLETIDQLYLEYAKRAAPFNNWMEGAMEDLQDTFIVHTIEEIQGLTTAHEQFKATLPDADKERLAILGIHNEVSKIVQTYHVNMAGTNPYTTITPQEINGKWDHVRQLVPRRDQALTEEHARQQHNERLRKQFGAQANVIGPWIQTKMEEIGRISIEMHGTLEDQLSHLRQYEKSIVNYKPKIDQLEGDHQLIQEALIFDNKHTNYTMEHIRVGWEQLLTTIARTINEVENQILTRDAKGISQEQMNEFRASFNHFDRDHSGTLGPEEFKACLISLGYDIGNDPQGEAEFARIMSIVDPNRLGVVTFQAFIDFMSRETADTDTADQVMASFKILAGDKNYITMDELRRELPPDQAEYCIARMAPYTGPDSVPGALDYMSFSTALYGESDL
B5: sp¦Q8NC51¦PAIRB_HUMAN (protein, UniProt Q8NC51 2-408, looked up)
SERPINE1 mRNA-binding protein …: PGHLQEGFGCVVTNRFDQLFDDESDPFEVLKAAENKKKEAGGGGVGGPGAKSAAQAAAQTNSNAAGKQLRKESQKDRKNPLPPSVGVVDKKEETQPPVALKKEGIRRVGRRPDQQLQGEGKIIDRRPERRPPRERRFEKPLEEKGEGGEFSVDRPIIDRPIRGRGGLGRGRGGRGRGMGRGDGFDSRGKREFDRHSGSDRSSFSHYSGLKHEDKRGGSGSHNWGTVKDELTESPKYIQKQISYNYSDLDQSNVTEETPEGEEHHPVADTENKENEVEEVKEEGPKEMTLDEWKAIQNKDRAKVEFNIRKPNEGADGQWKKGFVLHKSKSEEAHAEDSVMDHHFRKPANDITSQLEINFGDLGRPGRGGRGGRGGRGRGGRPNRGSRTDKSSASAPDVDDPEAFPALA
B6: sp¦Q99614¦TTC1_HUMAN (protein, UniProt Q99614 1-292, looked up)
Tetratricopeptide repeat …: MGEKSENCGVPEDLLNGLKVTDTQEAECAGPPVPDPKNQHSQSKLLRDDEAHLQEDQGEEECFHDCSASFEEEPGADKVENKSNEDVNSSELDEEYLIELEKNMSDEEKQKRREESTRLKEEGNEQFKKGDYIEAESSYSRALEMCPSCFQKERSILFSNRAAARMKQDKKEMAINDCSKAIQLNPSYIRAILRRAELYEKTDKLDEALEDYKSILEKDPSIHQAREACMRLPKQIEERNERLKEEMLGKLKDLGNLVLRPFGLSTENFQIKQDSSTGSYSINFVQNPNNNR
B7: sp¦O00273¦DFFA_HUMAN (protein, UniProt O00273 1-331, looked up)
DNA fragmentation factor …: MEVTGDAGVPESGEIRTLKPCLLRRNYSREQHGVAASCLEDLRSKACDILAIDKSLTPVTLVLAEDGTIVDDDDYFLCLPSNTKFVALASNEKWAYNNSDGGTAWISQESFDVDETDSGAGLKWKNVARQLKEDLSSIILLSEEDLQMLVDAPCSDLAQELRQSCATVQRLQHTLQQVLDQREEVRQSKQLLQLYLQALEKEGSLLSKQEESKAAFGEEVDAVDTGISRETSSDVALASHILTALREKQAPELSLSSQDLELVTKEDPKALAVALNWDIKKTETVQEACERELALRLQQTQSLHSLRSISASKASPPGDLQNPKRARQDPT
B8: sp¦Q9Y3F4¦STRAP_HUMAN (protein, UniProt Q9Y3F4 1-350, looked up)
Serine-threonine kinase …: MAMRQTPLTCSGHTRPVVDLAFSGITPYGYFLISACKDGKPMLRQGDTGDWIGTFLGHKGAVWGATLNKDATKAATAAADFTAKVWDAVSGDELMTLAHKHIVKTVDFTQDSNYLLTGGQDKLLRIYDLNKPEAEPKEISGHTSGIKKALWCSEDKQILSADDKTVRLWDHATMTEVKSLNFNMSVSSMEYIPEGEILVITYGRSIAFHSAVSLDPIKSFEAPATINSASLHPEKEFLVAGGEDFKLYKYDYNSGEELESYKGHFGPIHCVRFSPDGELYASGSEDGTLRLWQTVVGKTYGLWKCVLPEEDSGELAKPKIGFPETTEEELEEIASENSDCIFPSAPDVKA
B9: sp¦P41218¦MNDA_HUMAN (protein, UniProt P41218 1-407, looked up)
Myeloid cell nuclear …: MVNEYKKILLLKGFELMDDYHFTSIKSLLAYDLGLTTKMQEEYNRIKITDLMEKKFQGVACLDKLIELAKDMPSLKNLVNNLRKEKSKVAKKIKTQEKAPVKKINQEEVGLAAPAPTARNKLTSEARGRIPVAQKRKTPNKEKTEAKRNKVSQEQSKPPGPSGASTSAAVDHPPLPQTSSSTPSNTSFTPNQETQAQRQVDARRNVPQNDPVTVVVLKATAPFKYESPENGKSTMFHATVASKTQYFHVKVFDINLKEKFVRKKVITISDYSECKGVMEIKEASSVSDFNQNFEVPNRIIEIANKTPKISQLYKQASGTMVYGLFMLQKKSVHKKNTIYEIQDNTGSMDVVGSGKWHNIKCEKGDKLRLFCLQLRTVDRKLKLVCGSHSFIKVIKAKKNKEGPMNVN

Test system: human HL60 cells
Experiment: SWATH-MS proteomics, differential protein representation, akirin2 KO vs WT HL60 cells
Format: cell-based
Method: Total proteins were extracted from WT and akirin2 KO HL60 cells using the AllPrep DNA/RNA/Protein Mini Kit (Qiagen) and protein concentration was determined using the BCA Protein Assay with BSA (Sigma–Aldrich) as standard. Protein extracts (150 µg per sample, n=3 biological replicates) from each WT and KO cells were trypsin digested using the FASP Protein Digestion Kit (Expedeon Ltd., Abcam, Cambridge, U.K.) and sequencing grade trypsin (Promega, Madison, WI, U.S.A.) following manufacturer’s recommendations. The resulting peptides were finally desalted on to OMIX Pipette tips C18 (Agilent Technologies, Santa Clara, CA, U.S.A.), dried down and stored at −20 °C until mass spectrometry analysis. […] Three micrograms of each protein digest from the three biological replicates of WT and akirin2 KO HL60 cells were used for the generation of the reference spectral ion library as part of the SWATH-MS analysis.
Peptides were eluted in a 120-min gradient from 5 to 30% solvent B in solvent A followed by 15-min gradient from 30 to 60% solvent B in solvent A (solvent A: 0.1% formic acid in water, solvent B: 0.1% formic acid in acetonitrile) and directly injected into the mass spectrometer for analysis. For IDA experiments, the mass spectrometer was set to scanning full spectra (350–1400 m/z) using 250 ms accumulation time per spectrum, followed by up to 50 MS/MS scans (100–1500 m/z). Candidate ions with a charge state between +2 and +5 counts per second above a minimum threshold of 100 were isolated for fragmentation. One MS/MS spectrum was collected for 100 ms, before adding those precursor ions to the exclusion list for 15 s (mass spectrometer operated by Analyst TF 1.6, AB Sciex). Dynamic background subtraction was turned off. MS/MS analyses were recorded in high-sensitivity mode with rolling collision energy on and a collision energy spread of 5. For SWATH quantitative analysis, six independent samples (three replicates from WT and akirin2 KO HL60 cells, 5 µg each) were subjected to the cyclic DIA of mass spectra using the SWATH variable windows calculator (V 1.0, AB Sciex) and the SWATH acquisition method editor (AB Sciex), similar to established methods. […] For these experiments, a 50-ms survey scan (350–1400 m/z) was acquired at the beginning of each cycle, and SWATH–MS/MS spectra were collected from 100–1500 m/z for 70 ms at high-sensitivity mode, resulting in a cycle time of 3.6 s. Collision energy for each window was determined according to the calculation for a charge +2 ion-centered upon the window with a collision energy spread of 15. To create a spectral library of all the detectable peptides in the samples, the IDA MS raw files were combined and subjected to database search in unison using ProteinPilot software v. 5.0.1 (AB Sciex) with the Paragon algorithm. […] The detected protein threshold was set at 0.05. An independent false discovery rate (FDR) analysis, using the target–decoy approach provided by Protein Pilot (AB Sciex; https://sciex.com/products/software/proteinpilot-software), was used to assess the quality of identifications. Positive identifications were considered when identified proteins reached 1% of global FDR. […] Global normalization was performed according to the Total Area Sums (TAS) of all detected proteins in the samples. […] Heatmaps were prepared using the Heatmapper (http://www.heatmapper.ca/expression/) with average linkage and Euclidean distance measurement method.

[1] = akirin2 KO vs WT HL60 cells, sheet "Over-represented in KO"
[2] = SWATH-MS, akirin2 KO vs WT HL60 cells, over-represented in KO
[3] = Over-represented in KO, KO vs WT HL60 cells

Molecule | Fold Change [3] | Log (Fold Change) [3] | further results
B1 |  |  | Fold Change [1]: 1.2518; Log (Fold Change) [1]: 0.09753
B2 |  |  | Fold Change [2]: 3.338; Log (Fold Change) [2]: 0.5235
B3 | 1.293 | 0.1116 | 
B4 | 1.274 | 0.1053 | 
B5 | 1.286 | 0.1092 | 
B6 | 1.292 | 0.1114 | 
B7 | 1.2886 | 0.1101 | 
B8 | 1.284 | 0.1086 | 
B9 | 1.264 | 0.1017 | 
